From the supplement of paper PMC10724198
± gives the standard deviation of the averaged measurements.

Experiments:
Saccharomyces cerevisiae [1] = assay: protein stability index of tFT-peptide fusion (C-terminal peptide) (PSI (0-1 scale)); higher = more stable (slower turnover); details: genetic background: wild type; temperature: 30 C
Saccharomyces cerevisiae [2] = assay: as above
Method: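 MPS profiling in S. cerevisiae of the tFT-X12 degron library: putative degron peptides plus stable controls, 12 aa, fused to the C-terminus of a sfGFP-mCherry timer. Cells are FACS-sorted into 8 mCherry/sfGFP bins and deep-sequenced. PSI runs from 0 (unstable) to 1 (stable). Backgrounds are wild type, das1Δ and doa10Δ at 30 °C, and wild type, das1Δ, cdc34-1 and cdc53-1 at 37 °C; 2-3 technical replicates each.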

[3] = genetic background: cdc34-1, temperature: 37 C
[4] = genetic background: cdc53-1, temperature: 37 C
[5] = genetic background: das1 deletion, temperature: 30 C
[6] = genetic background: das1 deletion, temperature: 37 C
[7] = genetic background: doa10 deletion, temperature: 30 C
[8] = genetic background: wild type, temperature: 30 C
[9] = genetic background: wild type, temperature: 37 C
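Further: PSI is a weighted mean of sequencing reads over stability bins, variants kept only with over 10 reads, mCherry proximal and sfGFP distal, peptide attached via GGGS linker.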

Sequence	protein stability index (Saccharomyces cerevisiae [1])	protein stability index (Saccharomyces cerevisiae [2]; [3])	protein stability index (Saccharomyces cerevisiae [2]; [4])	protein stability index (Saccharomyces cerevisiae [2]; [5])	protein stability index (Saccharomyces cerevisiae [2]; [6])	protein stability index (Saccharomyces cerevisiae [2]; [7])	protein stability index (Saccharomyces cerevisiae [2]; [8])	protein stability index (Saccharomyces cerevisiae [2]; [9])
LLVSVVFVSRFF	0.387 ± 0.053	0.378 ± 0.024	0.465 ± 0.075	0.272 ± 0.038	0.514 ± 0.0092	0.213 ± 0.0049	0.251 ± 0.035	0.444 ± 0.006
LLWALGLVLVEG	0.377 ± 0.029	0.152 ± 0.033	0.193 ± 0.026	0.217 ± 0.022	0.2919 ± 0.0014	0.171 ± 0.0078	0.204 ± 0.029	0.281 ± 0.015
LNLACCWFVRCR	0.349 ± 0.03	0.311 ± 0.035	0.339 ± 0.011	0.253 ± 0.035	0.4215 ± 0.00083	0.2269 ± 0.00044	0.261 ± 0.021	0.399 ± 0.015
LNSSVLRLRFFV	0.2643 ± 0.0019	0.542 ± 0.027	0.739 ± 0.063	0.607 ± 0.037	0.756 ± 0.04	0.0882 ± 0.011	0.098 ± 0.024	0.152 ± 0.041
LPLCGLLLFLFF	0.435 ± 0.0059	0.472 ± 0.024	0.5394 ± 0.0043	0.433 ± 0.024	0.5302 ± 0.0025	0.42 ± 0.024	0.42 ± 0.015	0.492 ± 0.022
LPLQPPPPVCLP	0.376 ± 0.022	0.65583 ± 3.7e-05	0.7163 ± 0.0065	0.629 ± 0.024	0.7199 ± 0.0036	0.634 ± 0.031	0.644 ± 0.018	0.69 ± 0.011
LPPFGLFLFVFI	0.366 ± 0.018	0.437 ± 0.034	0.466 ± 0.0094	0.31 ± 0.044	0.517 ± 0.0074	0.274 ± 0.008	0.285 ± 0.029	0.498 ± 0.01
LPPSTFLLHFLL	0.317 ± 0.0077	0.667 ± 0.046	0.714 ± 0.011	0.656 ± 0.013	0.744 ± 0.0099	0.218 ± 0.018	0.232 ± 0.026	0.415 ± 0.0062
LPTGLKTFLIAF	0.461 ± 0.02	0.481 ± 0.0085	0.485 ± 0.031	0.414 ± 0.025	0.541 ± 0.026	0.374 ± 0.0094	0.405 ± 0.027	0.519 ± 0.0071
LPVPARPFPPSS	0.714 ± 0.0095	0.662 ± 0.027	0.713 ± 0.0083	0.684 ± 0.024	0.711 ± 0.014	0.705 ± 0.031	0.688 ± 0.021	0.6907 ± 0.0012
LQSYVSRLVRLS	0.295 ± 0.015	0.618 ± 0.082	0.745 ± 0.027	0.653 ± 0.041	0.7356 ± 0.00043	0.191 ± 0.0033	0.186 ± 0.036	0.359 ± 0.055
LRFFLPFLLSLP	0.2418 ± 0.0021	0.519 ± 0.043	0.596 ± 0.015	0.55 ± 0.036	0.6588 ± 0.0031	0.158 ± 0.0035	0.164 ± 0.022	0.292 ± 0.0041
LRFSLLRVGWLC	0.434 ± 0.0087	0.652 ± 0.053	0.681 ± 0.017	0.58 ± 0.0099	0.732 ± 0.022	0.28 ± 0.0089	0.336 ± 0.037	0.561 ± 0.011
LRGIVSVWILRA	0.249 ± 0.025	0.501 ± 0.034	0.56 ± 0.0093	0.441 ± 0.017	0.605 ± 0.0076	0.149 ± 0.0028	0.148 ± 0.0039	0.282 ± 0.0057
LRLLSLIPPLSC	0.467 ± 0.0065	0.494 ± 0.022	0.535 ± 0.05	0.381 ± 0.039	0.53 ± 0.016	0.34 ± 0.011	0.385 ± 0.026	0.52 ± 0.011
LRSPCALVLLLI	0.336 ± 0.0096	0.495 ± 0.022	0.5317 ± 0.0035	0.376 ± 0.029	0.556 ± 0.0056	0.213 ± 0.0037	0.237 ± 0.024	0.441 ± 0.0051
LSAVISLRIQLS	0.449 ± 0.021	0.595 ± 0.093	0.603 ± 0.051	0.518 ± 0.032	0.546 ± 0.0071	0.3636 ± 0.0016	0.379 ± 0.04	0.4919 ± 0.0018
LSFFICSFFFVL	0.408 ± 0.013	0.514 ± 0.045	0.556 ± 0.014	0.456 ± 0.03	0.5798 ± 0.0013	0.344 ± 0.006	0.361 ± 0.021	0.5113 ± 0.0012
LSFLSLIFSICY	0.461 ± 0.022	0.43162 ± 0.0004	0.449 ± 0.054	0.356 ± 0.021	0.526 ± 0.066	0.355 ± 0.0012	0.333 ± 0.037	0.474 ± 0.012
LSGDIPWSFVPV	0.738 ± 0.033	0.743 ± 0.04	0.766 ± 0.046	0.654 ± 0.011	0.787 ± 0.02	0.673 ± 0.028	0.677 ± 0.031	0.75756 ± 0.0002

Sequence	protein stability index (Saccharomyces cerevisiae [1])	protein stability index (Saccharomyces cerevisiae [2]; [3])	protein stability index (Saccharomyces cerevisiae [2]; [4])	protein stability index (Saccharomyces cerevisiae [2]; [5])	protein stability index (Saccharomyces cerevisiae [2]; [6])	protein stability index (Saccharomyces cerevisiae [2]; [7])	protein stability index (Saccharomyces cerevisiae [2]; [8])	protein stability index (Saccharomyces cerevisiae [2]; [9])
LSIGCRCLWGWF	0.465 ± 0.051	0.718 ± 0.029	0.7548 ± 0.004	0.631 ± 0.013	0.762 ± 0.022	0.577 ± 0.009	0.5967 ± 0.0059	0.708 ± 0.026
LSLCPVHRLLVL	0.498 ± 0.03	0.558 ± 0.02	0.632 ± 0.032	0.481 ± 0.025	0.624 ± 0.007	0.358 ± 0.0063	0.379 ± 0.034	0.5327 ± 0.0015
LSLSPRLPRLVA	0.283 ± 0.038	0.613 ± 0.015	0.659 ± 0.018	0.537 ± 0.014	0.663 ± 0.0015	0.156 ± 0.0087	0.197 ± 0.023	0.377 ± 0.026
LSRFGSTCPSGL	0.724 ± 0.0079	0.72 ± 0.038	0.7696 ± 0.0062	0.642 ± 0.011	0.765 ± 0.032	0.6358 ± 0.0032	0.638 ± 0.012	0.7477 ± 0.0031
LSRHLILFIVIR	0.272 ± 0.036	0.0962 ± 0.042	0.0846 ± 0.02	0.172 ± 0.014	0.2805 ± 0.0024	0.289 ± 0.019	0.174 ± 0.019	0.2008 ± 0.00073
LSVYFSLSLCVS	0.448 ± 0.02	0.363 ± 0.014	0.451 ± 0.0063	0.384 ± 0.025	0.462 ± 0.011	0.392 ± 0.0084	0.399 ± 0.017	0.429 ± 0.017
LTCTSTPMACRV	0.452 ± 0.0075	0.562 ± 0.067	0.589 ± 0.021	0.443 ± 0.026	0.596 ± 0.011	0.429 ± 0.015	0.475 ± 0.013	0.5859 ± 0.0028
LVCLPVGFFLMW	0.4899 ± 0.0037	0.565 ± 0.084	0.638 ± 0.0074	0.47 ± 0.034	0.634 ± 0.0072	0.388 ± 0.0045	0.411 ± 0.013	0.576 ± 0.0068
LVCLVFVRSSLV	0.339 ± 0.022	0.268 ± 0.0043	0.571 ± 0.079	0.25 ± 0.024	0.529 ± 0.0096	0.205 ± 0.0029	0.232 ± 0.038	0.457 ± 0.017
LVCSRFLFAFHC	0.145 ± 0.011	0.45678 ± 0.00016	0.686 ± 0.022	0.604 ± 0.037	0.699 ± 0.014	0.076 ± 0.0097	0.0796 ± 0.0047	0.104 ± 0.012
LVFFLFFFRCFS	0.449 ± 0.035	0.506 ± 0.059	0.514 ± 0.016	0.37 ± 0.049	0.534 ± 0.014	0.3734 ± 0.0018	0.36 ± 0.033	0.488 ± 0.0042
LVFGFSLILRVG	0.2132 ± 0.00073	0.168 ± 0.025	0.203 ± 0.0096	0.272 ± 0.054	0.356 ± 0.016	0.139 ± 0.016	0.128 ± 0.0069	0.234 ± 0.018
LVRDEVLKVKLV	0.297 ± 0.014	0.6432 ± 0.004	0.718 ± 0.011	0.643 ± 0.018	0.722 ± 0.013	0.138 ± 0.0093	0.17 ± 0.021	0.244 ± 0.0095
LVRGSRLIVIVG	0.423 ± 0.026	0.444 ± 0.01	0.473 ± 0.028	0.333 ± 0.025	0.5181 ± 0.0045	0.289 ± 0.0053	0.328 ± 0.034	0.492 ± 0.019
LYTFCSMDANPM	0.4016 ± 0.0012	0.397 ± 0.019	0.439 ± 0.011	0.439 ± 0.019	0.383 ± 0.033	0.488 ± 0.028	0.468 ± 0.0092	0.407 ± 0.04
MALAVRVVYCGA	0.378 ± 0.0028	0.349 ± 0.015	0.391 ± 0.01	0.293 ± 0.023	0.4395 ± 0.0024	0.234 ± 0.011	0.283 ± 0.027	0.415 ± 0.021
MFTIYISFVFAF	0.269 ± 0.039	0.197 ± 0.0067	0.277 ± 0.0087	0.195 ± 0.029	0.3305 ± 0.00089	0.179 ± 0.017	0.214 ± 0.0098	0.2844 ± 0.0023
MSQVRYQRATRA	0.54 ± 0.067	0.657 ± 0.074	0.676 ± 0.044	0.608 ± 0.0071	0.692 ± 0.0087	0.526 ± 0.021	0.535 ± 0.023	0.648 ± 0.011
NDKGKKTKIKIV	0.254 ± 0.058	0.659 ± 0.025	0.72 ± 0.057	0.64 ± 0.067	0.7368 ± 0.0053	0.187 ± 0.011	0.185 ± 0.024	0.343 ± 0.029
